Reference: patent US20240181022A1, “AMURINS LYSINS, AND LYSIN-ANTIMICROBIAL PEPTIDE (AMP) CONSTRUCTS ACTIVE AGAINST GRAM-NEGATIVE BACTERIA” (priority 2021, published 2024)
Converted amounts (≈) assume the structure as drawn. Where no end group is shown, it is not given here.

How the values were obtained:
E. coli = assay: Checkerboard synergy assay (FICI) against E. coli; assay type: cell-based, Escherichia coli; conditions: E. coli ATCC 25922
Description: In some embodiments, the Chp peptides disclosed herein or active fragments thereof reduce the minimum inhibitory concentration (MIC) of an antibiotic in the presence and/or absence of human serum, pulmonary surfactant, and/or sputum, including human sputum and human sputum from a cystic fibrosis patient. Any known method to assess MIC may be used. In some embodiments, a checkerboard assay is used to determine the effect of a Chp peptide or active fragment thereof on antibiotic concentration. The checkerboard assay is based on a modification of the CLSI method for MIC determination by broth microdilution (See Clinical and Laboratory Standards Institute (CLSI), CLSI. 2015. Methods for Dilution Antimicrobial Susceptibility Tests for Bacteria That Grow Aerobically; Approved Standard-10th Edition. Clinical and Laboratory Standards Institute, Wayne, PA, which is herein incorporated by reference in its entirety and Ceri et al. 1999. J. Clin. Microbiol. 37: 1771-1776, which is also herein incorporated by reference in its entirety).
Checkerboards are constructed by first preparing columns of e.g., a 96-well polypropylene microtiter plate, wherein each well has the same amount of antibiotic diluted 2-fold along the horizontal axis. […] The Chp peptide or active fragment thereof and antibiotic dilutions are then combined, so that each column has a constant amount of antibiotic and doubling dilutions of Chp peptide, while each row has a constant amount of Chp peptide and doubling dilutions of antibiotic. Each well thus has a unique combination of Chp peptide and antibiotic. Bacteria are added to the drug combinations at concentrations of 1×10^5 GFU/ml in CAA, for example, with or without human serum or pulmonary surfactant. […] Summation fractional inhibitory concentrations (ΣFICs) are calculated for each drug and the minimum ΣFIC value (ΣFICmin) is used to determine the effect of the Chp peptide/antibiotic combination.
(§1) GN370 was further tested in combination with up to seven additional antibiotics (in addition to meropenem) against a variety of bacterial strains, including P. aeruginosa, A. baumannii, E. coli, E. cloacae, and K. pneumoniae. GN370 and the subject antibiotics were tested in a checkerboard assay format, and FICI values were determined, wherein ≤0.5 indicates synergy, >0.5-≤1 indicates additive; and >1 indicates indifferent.

K. pneumoniae = assay: Checkerboard synergy assay (FICI) against K. pneumoniae; assay type: cell-based, Klebsiella pneumoniae; conditions: K. pneumoniae HM-44
Method: Any known method to assess MIC may be used.
Checkerboards are constructed by first preparing columns of e.g., a 96-well polypropylene microtiter plate, wherein each well has the same amount of antibiotic diluted 2-fold along the horizontal axis. […] Bacteria are added to the drug combinations at concentrations of 1×10^5 […] in CAA, for example, with or without human serum or pulmonary surfactant. […] Summation fractional inhibitory concentrations (ΣFICs) are calculated for each drug and the minimum ΣFIC value (ΣFICmin) is used to determine the effect of the Chp peptide/antibiotic combination.
as §1

P. aeruginosa = assay: microbe, parasite or virus in culture; conditions: Pseudomonas aeruginosa
A. xylosoxidans = assay: Serial passage resistance development study, A. xylosoxidans; assay type: cell-based, Achromobacter xylosoxidans; conditions: A. xylosoxidans, day 28
P. aeruginosa AR-769 [1] = assay: Repeat dose study of AM1 in the rabbit pulmonary infection model; assay type: in vivo; conditions: for Log CFU change v. pre-treatment (at 6 hours) / Mean Bacterial Density in Lung ± SD / Survival: rabbit
A. baumannii = assay: MBEC against A. baumannii biofilm; assay type: cell-based, Acinetobacter baumannii; conditions: MDR and XDR A. baumannii (22)
E. cloacae [2] = assay: GN370 time-kill assay, E. cloacae; assay type: cell-based, Enterobacter cloacae; conditions: for Log10 CFU/mL: E. cloacae ATCC 29941
Method: A kinetic analysis of GN370 bactericidal activity was performed using a time-kill assay format in which CFU reductions of each target organism (P. aeruginosa, K. pneumoniae, A. baumannii, E. coli, and E. cloacae) were measured over 24 hours at 37° C. […] Bactericidal activity was defined as CFU reductions of ≥3-log 10 CFU/mL as compared to the inoculum at the 24-hour time point.

P. aeruginosa AR-769 [3] = assay: GN370 in the rabbit pneumonia model; assay type: in vivo, New Zealand White rabbits
E. cloacae [4] = assay: MBEC against E. cloacae biofilm; assay type: cell-based, Enterobacter cloacae; conditions: MDR and XDR E. cloacae (14)
[5] = tested on: Ralstonia mannitolilytica; assay: MIC by broth microdilution against Ralstonia mannitolilytica; assay type: cell-based; conditions: N 10
Method: (§2) MIC values were determined by broth microdilution against clinical isolates and resistant isolates from a wide range of bacterial species, including isolates from the CDC Antibiotic Resistance bank, including the GN ESKAPE pathogens and E. coli, including carbapenem-resistant Enterobacteriaciae, Acinetobacter, and Pseudomonas.

Kluyvera ascorbate = assay: MIC by broth microdilution against Kluyvera ascorbate; assay type: cell-based; conditions: N 1
Method: as §2

Salmonella senftenberg = assay: MIC by broth microdilution against Salmonella senftenberg; assay type: cell-based; conditions: N 1
Method: as §2

Citrobacter freundii = assay: MIC by broth microdilution against Citrobacter freundii; assay type: cell-based; conditions: N 2
Method: as §2

[6] = AM1 1 mg/kg i.v. every 24 hours (n = 7)
[7] = AM1 5 mg/kg i.v. every 24 hours (n = 8)

C[C@@H](O)[C@H]1C(=O)N2C(C(=O)O)=C(S[C@@H]3CN[C@H](C(=O)N(C)C)C3)[C@H](C)[C@H]12 [meropenem, reference compound]
FICI of the antibiotic with GN370 (E. coli): 0.5
FICI of the antibiotic with GN370 (K. pneumoniae): 0.5
MIC (P. aeruginosa): 64 µg/mL (≈ 167 µM)

MRLKMARRRYRLPRRRSRRLFSRTALRMHPRNRLRRIMRGGIRF [AM1]
change in MIC over serial passage (A. xylosoxidans): no increase in the MICs
mean bacterial density in lungs compared to the vehicle control group (P. aeruginosa AR-769 [1]; agent alone, intravenous, treatment from 6 hours post-infection): moderate to no CFU/g reduction
Log CFU change v. pre-treatment (at 6 hours) (P. aeruginosa AR-769 [1]; [6]): 1.56 Log CFU
Mean Bacterial Density in Lung ± SD (P. aeruginosa AR-769 [1]; [6]): 9.02 ± 1.49 Log CFU/lung
Survival (P. aeruginosa AR-769 [1]; [6]): 0%
Log CFU change v. pre-treatment (at 6 hours) (P. aeruginosa AR-769 [1]; [7]): 1.80 Log CFU
Mean Bacterial Density in Lung ± SD (P. aeruginosa AR-769 [1]; [7]): 8.98 ± 1.47 Log CFU/lung
Survival (P. aeruginosa AR-769 [1]; [7]): 37.5%

B1: GN370: lysin-AMP construct, SEQ ID NO: 149: MIDR, FIRL and NPTH moieties N-terminal to GN202 lysin (protein)
chain: MIDRFIRLNPTHGPRRPRRPGRRAPVRTSQRGIDLIKSFEGLRLSAYQDSVGVWTIGYGTTRGVTRYMTITVEQAERMLSNDIQRFEPELDRLAKVPLNQNQWDALMSFVYNLGAANLASSTLLDLLNKGDYQGAADQFPHWVNAGGKRLDGLVKRRAAERALFLEPLS
modifications: GN370 lysin
MBEC50 (A. baumannii): 1 µg/mL
MBEC90 (A. baumannii): 2 µg/mL
MBEC Range (A. baumannii): 0.5 to 2 µg/mL
Number of isolates at MBEC 0.5 μg/mL (A. baumannii): 2
Number of isolates at MBEC 1 μg/mL (A. baumannii): 12
Number of isolates at MBEC 2 μg/mL (A. baumannii): 8
Log10 CFU/mL (E. cloacae [2]; 0.2x MIC, 1 hr): 5.0 Log10 CFU/mL
Log10 CFU/mL (E. cloacae [2]; 0.2x MIC, 3 hr): 5.0 Log10 CFU/mL
Log10 CFU/mL (E. cloacae [2]; 0.2x MIC, 24 hr): 9.0 Log10 CFU/mL
Log10 CFU/mL (E. cloacae [2]; 1x MIC, 1 hr): 2.4 Log10 CFU/mL
Log10 CFU/mL (E. cloacae [2]; 1x MIC, 3 hr): 1.5 Log10 CFU/mL
Log10 CFU/mL (E. cloacae [2]; 1x MIC, 24 hr): 2.3 Log10 CFU/mL
Log10 CFU/mL (E. cloacae [2]; 2x MIC, 1 hr): 1.6 Log10 CFU/mL
Log10 CFU/mL (E. cloacae [2]; 2x MIC, 3 hr): 1.6 Log10 CFU/mL
Log10 CFU/mL (E. cloacae [2]; 2x MIC, 24 hr): 1.6 Log10 CFU/mL
Log10 CFU/mL (E. cloacae [2]; 5x MIC, 1 hr): 1.5 Log10 CFU/mL
Log10 CFU/mL (E. cloacae [2]; 5x MIC, 3 hr): 1.5 Log10 CFU/mL
Log10 CFU/mL (E. cloacae [2]; 5x MIC, 24 hr): 1.5 Log10 CFU/mL
concentration with bactericidal activity (≥3-log 10 CFU/mL reduction at 24 hours) (E. cloacae [2]; E. cloacae, 37° C.): ≥ 1 ×MIC
animals surviving until the end of the study (P. aeruginosa AR-769 [3]; GN370 at 3 mg/kg and 10 mg/kg alone or in addition to amikacin): 100%
decrease of mean bacterial densities in lungs vs vehicle controls (P. aeruginosa AR-769 [3]; amikacin-alone or GN370-alone): ~2.0 log10 CFU/g
MBEC50 (E. cloacae [4]): 1 µg/mL
MBEC90 (E. cloacae [4]): 2 µg/mL
MBEC Range (E. cloacae [4]): 0.5 to 2 µg/mL
Number of isolates at MBEC 0.5 μg/mL (E. cloacae [4]): 1
Number of isolates at MBEC 1 μg/mL (E. cloacae [4]): 9
Number of isolates at MBEC 2 μg/mL (E. cloacae [4]): 4
MIC50 [5]: >64 µg/mL
MIC90 [5]: >64 µg/mL
MIC Range [5]: >64 µg/mL
MIC Range (Kluyvera ascorbate): 1 µg/mL
MIC Range (Salmonella senftenberg): 2 µg/mL
MIC Range (Citrobacter freundii): 0.5 to 2 µg/mL
